How the values were obtained:
[1] = substrate: C[C@H](NC(=O)CCC(=O)O)C(=O)N[C@@H](C)C(=O)N1CCC[C@H]1C(=O)N[C@@H](Cc1ccccc1)C(=O)Nc1ccc([N+](=O)[O-])cc1; test: Km and kcat of enzyme, Table 1; format: biochemical; conditions: other: 0.05M sodium phosphate buffer at pH 8 containing 10% methanol
Description: (§1) The yield of the active enzyme was determined by comparison of the relative activity of the native trypsin and the trypsin-polymer conjugate for N-succinyl-Ala-Ala-Pro-Phe p-nitroanilide as the substrate in 0.05M sodium phosphate buffer at pH 8 containing 10% methanol.
The procedure of EXAMPLE 8 (a) (i) was repeated in every essential detail except that BPN'-subtilisin was used instead of trypsin.

[2] = substrate: C[C@H](NC(=O)CCC(=O)O)C(=O)N[C@@H](C)C(=O)N1CCC[C@H]1C(=O)N[C@@H](Cc1ccccc1)C(=O)Nc1ccc([N+](=O)[O-])cc1; test: Km and kcat of enzyme, Table 1; format: biochemical; conditions: other: 0.05M sodium phosphate buffer at pH 8 containing 10% methanol; remark: listed apart in the source
Description: as §1
The procedure of EXAMPLE 8 (a) (i) was repeated in every essential detail except that Carlsberg-subtilisin was used instead of trypsin.

B1: BPN'-subtilisin (native) (Bacillus amyloliquefaciens) (protein)
chain: AQSVPYGVSQIKAPALHSQGYTGSNVKVAVIDSGIDSSHPDLKVAGGASMVPSETNPFQDNNSHGTHVAGTVAALNNSIGVLGVAPSASLYAVKVLGADGSGQYSWIINGIEWAIANNMDVINMSLGGPSGSAALKAAVDKAVASGVVVVAAAGNEGTSGSSSTVGYPGKYPSVIAVGAVDSSNQRASFSSVGPELDVMAPGVSIQSTLPGNKYGAYNGTSMASPHVAGAAALILSKHPNWTNTQVRSSLENTTTKLGDSFYYGKGLINVQAAAQ
B1 was tested. Which Km [1] did it give?
The Km was 240 µM.

And the kcat [1]?
The kcat was 83 s⁻¹.

B2: Carlsberg-subtilisin (native) (Bacillus licheniformis) (protein)
chain: AQTVPYGIPLIKADKVQAQGFKGANVKVAVLDTGIQASHPDLNVVGGASFVAGEAYNTDGNGHGTHVAGTVAALDNTTGVLGVAPSVSLYAVKVLNSSGSGSYSGIVSGIEWATTNGMDVINMSLGGASGSTAMKQAVDNAYAKGVVVVAAAGNSGSSGNTNTIGYPAKYDSVIAVGAVDSNSNRASFSSVGAELEVMAPGAGVYSTYPTNTYATLNGTSMASPHVAGAAALILSKHPNLSASQVRNRLSSTATYLGSSFYYGKGLINVEAAAQ
What does the source list for B2?
Km [2]: 251 µM; kcat [2]: 420 s⁻¹
